The target in assay [1] is T1, recombinant human TIGIT extra cellular domain (ECD) protein (human, UniProt Q495A1 22-138).
T1 construct: Purchased protein; it begins with the signal peptide; also called h-TIGIT ECD; human TIGIT ECD
T1 sequence: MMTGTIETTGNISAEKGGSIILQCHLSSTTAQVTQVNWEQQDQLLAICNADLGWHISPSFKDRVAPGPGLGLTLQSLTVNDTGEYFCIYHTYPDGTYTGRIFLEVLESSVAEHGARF
The experiment in a line: ELISA, VHH in supernatant on h-TIGIT ECD coated plates. (In general: ELISA stands for enzyme-linked immunosorbent assay.)

Assay [2] has as its target T1, recombinant human TIGIT extra cellular …. The experiment in a line: PVR blocking ELISA (PVR binding to h-TIGIT blocked by the clone); scatter of IC50 against EC50, nM per the legend.
The target in assay [3] is T2, human TIGIT stably expressed on cells (Jurkat; 293T) (human, UniProt Q495A1 22-244).
T2 construct: the expression vector's insert is not described further; also called h-TIGIT; human TIGIT transfected Jurkat cells
T2 sequence: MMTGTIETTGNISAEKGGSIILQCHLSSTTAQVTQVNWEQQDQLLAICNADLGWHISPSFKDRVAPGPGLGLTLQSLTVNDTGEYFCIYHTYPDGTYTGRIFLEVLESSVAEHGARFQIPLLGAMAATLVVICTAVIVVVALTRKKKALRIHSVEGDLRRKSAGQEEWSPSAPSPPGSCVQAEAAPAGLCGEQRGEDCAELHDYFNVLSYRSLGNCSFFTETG
The experiment in a line: whole cell binding on TIGIT stable cells (species not named in the legend, taken as human); scatter of EC50 against IC50, nM per the legend.

B1: 4D5 VHH (VHH)
VHH: VDSGGGAVKAGDSLRLVCSAPGRTHGRAFNEYAMAWFRQGPGKERESVAAISSDGRFTYYAASVKGRFTISKDNAKSAAFLQMNSLKPEDTAVYYCAARDSGSGYYSRAQWYDYWGQGTQVTVSS
notes: VHH in bacterial supernatant
For B1, the binding result in assay [1] is on record as “binds”.

B2: 4A11 VHH (VHH)
VHH: QVKLEESGGGEAQPGGSLRLSCTASGRPFSNYTMGWFRRAPGKEREFVGLAWPSPSTYVVDSVKGRFTISRDNAKNTIYLQMNSLKPEDTAIYYCAADYKSLTQSWLNAALDYWGQGTQVTVSS
notes: VHH in bacterial supernatant
With B2, in assay [1], the binding result is listed as “binds”.

B3: 4E5 VHH (VHH)
VHH: QVQLVDSGGGVVEVGASLTLSCETSGLTSSDIAVGWFRQGPGKERESVAAISSDGRFTYYAASVKGRFTISKDNAKSAAFLQMNSLKPEDTAVYYCAARDSGSGYYSRAQWYDYWGQGTQVTVSS
notes: VHH in bacterial supernatant
B3: in assay [1], the binding result is “binds”.

B4: 3H7 VHH (VHH)
VHH: QVKLEESGGGLVQAGGSLRLSCAASGSILSAGVMRWYRQAPGKQRELVASIALDGSTGYYIDSVKGRFTISRDNAKNIVYLDMRSLEPADTAVYLCNANIRTDMRSAPFDHWGHGTQVTVSS
notes: VHH in bacterial supernatant
For the molecule B4, the binding result in assay [1] is listed as “binds”.

B5: 4D11 VHH (VHH)
VHH: QVQLQESGGGLVQPGGSLRLSCAASGSISSINAMGWYRLAPGKHREFVADITNSGSTNYAASVKGRFNISRDNAKDTVYLQMNSLKFEDTAVYYCTARRSTWYISSGRGTQVTVSS
notes: VHH in bacterial supernatant
B5: in assay [1], the binding result is recorded as “binds”.

B6: 12H7 VHH (VHH)
VHH: QVQLVDSGGGLVQAGGSLRLSCKVSGNFLSVSDMSWYRQAPGMERDVVATVTEHGRTTYTDSVKGRFTISRDNAEHTTYLEMNNLKPEDTAVYFCKASDVFTDAGAHEAVLIRDYWGQGTQVTVSS
notes: VHH in bacterial supernatant
Turning to B6, the binding result in assay [1] is reported as “binds”.

B7: 4H6 VHH (VHH)
VHH: QVQLVESGGGLATAGASLILSCAASGTIFRLNRMGWFRQAPGKERERVAATIWSGRRTHYADSVKGRFTISTDNAKKTVYLRMSSLKPEDTAVYYCNYRRITPWEASGNYWGQGTQVTVSS
notes: VHH in bacterial supernatant
As for B7, in assay [1], the binding result is “binds”.

B8: 1A10 VHH (VHH)
VHH: QVQLVESGGGVVQPGRSLRLSCAASGNSFSSYPMGWFRQAPGKERESVAAISSDGRFSYYADSVKGRFTISRDNSKNTLYLQMNSLRAEDTAVYYCACRDSGSGYYSRAQWYDYWGQGTLVTVSS
notes: VHH in bacterial supernatant
On to B8, for which the binding result in assay [2] and in assay [3] was “binds” in each case.

B9: 7B11 VHH (VHH)
VHH: QVQLVESGGGVVQPGRSLRLSCAASGPSFLIYPMGWFRQAPGKERESVAAISSDGRFWYYADSVKGRFTISRDNSKNTLYLQMNSLRAEDTAVYYCAARDSGSGYYSRVQWYDYWGQGTLVTVSS
notes: VHH in bacterial supernatant
B9: the binding result in assay [2] and in assay [3] was “binds” in each case.

B10: 5B5 VHH (VHH)
VHH: QVQLVESGGGVVQPGRSLRLSCAASGPSFSSYPMGWFRQAPGKERESVAAISSDTRFTYYADSVKGRFTISRDNSKNTLYLQMNSLRAEDTAVYYCAARDSGSGYYSRAQWYDRWGQGTLVTVSS
notes: VHH in bacterial supernatant
Consider B10, for which the binding result in assay [2] and in assay [3] was “binds” each time.

B11: 2A5 VHH (VHH)
VHH: QVQLVESGGGVVQPGRSLRLSCAASGPSFSSYPMGWFRQAPGKERESVAAISSVGRFTYYADSVKGRFTISRDNSKNTLYLQMNSLRAEDTAVYYCAARDSGSGYYSRWQWYDYWGQGTLVTVSS
notes: VHH in bacterial supernatant
For B11, the binding result in assay [2] and in assay [3] was “binds” each time.

B12: 2D5 VHH (VHH)
VHH: QVQLVESGGGVVQPGRSLRLSCAASGPSFSSSPMGWFRQAPGKERESVAAISWDGRFTYYADSVKGRFTISRDNSKNTLYLQMNSLRAEDTAVYYCAARDSGSGYYSRAQWYVYWGQGTLVTVSS
notes: VHH in bacterial supernatant
As for B12, the binding result in assay [2] and in assay [3] was “binds” in each case.

B13: 1C7 VHH (VHH)
VHH: QVQLVESGGGVVQPGRSLRLSCAASGPSFSSYPMGWFRQAPGKERESVAAISSRGRFTYYADSVKGRFTISRDNSKNTLYLQMNSLRAEDTAVYYCAARGSGSGYYSRAQWYDYWGQGTLVTVSS
notes: VHH in bacterial supernatant
As to B13, the binding result in assay [2] and in assay [3] was “binds” throughout.

B14: 5E8 VHH (VHH)
VHH: QVQLVESGGGVVQPGRSLRLSCAASGPSFSSYPMGWFRQAPGKERESVAAQSSDGRFTYYADSVKGRFTISRDNSKNTLYLQMNSLRAEDTAVYYCAARDSGSGYYSRAQWYDYWGQGTLVTVSS
notes: VHH in bacterial supernatant
B14: the binding result in assay [2] and in assay [3] was “binds” throughout.

B15: 2A6 VHH (VHH)
VHH: QVQLVESGGGVVQPGRSLRLSCAASGPSFSLYPMGWFRQAPGKERESVAAISSDRRFTYYADSVKGRFTISRDNSKNTLYLQMNSLRAEDTAVYYCAARDSGSGYYSRAQWYDYWGQGTLVTVSS
notes: VHH in bacterial supernatant
Take B15: the binding result in assay [2] and in assay [3] was “binds” throughout.

B16: 2C5 VHH (VHH)
VHH: QVQLVESGGGVVQPGRSLRLSCAASGPSFSTYPMGWFRQAPGKERESVAAISSQGRFTYYADSVKGRFTISRDNSKNTLYLQMNSLRAEDTAVYYCAARDSGSGYYSRAQWYDYWGQGTLVTVSS
notes: VHH in bacterial supernatant
Take B16: the binding result in assay [2] and in assay [3] was “binds” throughout.

B17: 6D8 VHH (VHH)
VHH: QVQLVESGGGVVQPGRSLRLSCAASGPSFSSKPMGWFRQAPGKERESVAARSSDGRFTYYADSVKGRFTISRDNSKNTLYLQMNSLRAEDTAVYYCAARDSGSGRYSRAQWYDYWGQGTLVTVSS
notes: VHH in bacterial supernatant
As to B17, the binding result in assay [2] and in assay [3] was “binds” each time.

B18: 6B11 VHH (VHH)
VHH: QVQLVESGGGVVQPGRSLRLSCAASGPSFPSYPMGWFRQAPGKERESVAAISSRGRFTYYADSVKGRFTISRDNSKNTLYLQMNSLRAEDTAVYYCAARDSGSGYYSRLQWYDYWGQGTLVTVSS
notes: VHH in bacterial supernatant
For the molecule B18, the binding result in assay [2] and in assay [3] was “binds” throughout.

B19: 1D11 VHH (VHH)
VHH: QVQLVESGGGVVQPGRSLRLSCAASGPSFSSSPMGWFRQAPGKERESVAAISSMGRFTYYADSVKGRFTISRDNSKNTLYLQMNSLRAEDTAVYYCAARDSGSGYYSRAQWYDYWGQGTLVTVSS
notes: VHH in bacterial supernatant
Consider B19, for which the binding result in assay [2] and in assay [3] was “binds” in each case.

B20: 5G10 VHH (VHH)
VHH: QVQLVESGGGVVQPGRSLRLSCAASGPRFSSYPMGWFRQAPGKERESVAAISSDGRFTYYADSVKGRFTISRDNSKNTLYLQMNSLRAEDTAVYYCAARDSGSGYYSRAQWYDGWGQGTLVTVSS
notes: VHH in bacterial supernatant
For the molecule B20, the binding result in assay [2] and in assay [3] was “binds” each time.

B21: 6E9 VHH (VHH)
VHH: QVQLVESGGGVVQPGRSLRLSCAASGPSRSSYPMGWFRQAPGKERESVAAISSDGKFTYYADSVKGRFTISRDNSKNTLYLQMNSLRAEDTAVYYCAARDSGSGYYSRANWYDYWGQGTLVTVSS
notes: VHH in bacterial supernatant
Consider B21, for which the binding result in assay [2] and in assay [3] was “binds” throughout.

B22: 6D12 VHH (VHH)
VHH: QVQLVESGGGVVQPGRSLRLSCAASGPSFSTYPMGWFRQAPGKERESVAAISSDGVFTYYADSVKGRFTISRDNSKNTLYLQMNSLRAEDTAVYYCAARDSGSGYYSREQWYDYWGQGTLVTVSS
notes: VHH in bacterial supernatant
For B22, the binding result in assay [2] and in assay [3] was “binds” each time.

B23: 4H9 VHH (VHH)
VHH: QVQLVESGGGAVQAGGSLRLSCTASGPIARSRSTGMGWFRQGPGKERESVAAISSDGRFTYYAASVKGRFTISKDNAKSAAFLQMNSLKPEDTAVYYCAARDSGSGYYSRAQWYDYWGQGTQVTVSS
notes: VHH in bacterial supernatant
With B23, the binding result in assay [1] is listed as “binds”.

B24: 4C6 VHH (VHH)
VHH: QVQLVESGGGLVQAGGSLRLACAASGRTFSSYPMGWFRQGPGKERESVAAISSDGRFTYYAASVKGRFTISKDNAKSAAFLQMNSLKPEDTAVYRCAVDPTGWGTIEADFRSWGQGTQVTVSS
notes: VHH in bacterial supernatant
On to B24, for which, in assay [1], the binding result is “binds”.

B25: 4C5 VHH (VHH)
VHH: QVQLVDSGGGLVQAGGSLRLSCAVSGRSVSTYFVGWFRQAPGKEREFVAAIDRGSTVTRYDDSVKGRFTISRDNAKDTVYLQMNSLKPEDTAVYYCAAKAITRNFIATNDYDYWGQGTQVTVSS
notes: VHH in bacterial supernatant
In the case of B25, the binding result in assay [1] was “binds”.

B26: 4B5 VHH (VHH)
VHH: QVKLEESGGRSVLAGGSLRLRCAGTPRTFSTFHIGWFRQAPGKEREFVAAFNWSGGRTYYADSVKGRFTISRNNGKNMVYLQMTSLTPEDTGLYYCAAARDRGLHDGTTSDSYLEGSHEYEYWGQGTQVTVSS
notes: VHH in bacterial supernatant
For B26, the binding result in assay [1] was “binds”.
